Measurements from article PMC12723162, “Alphaherpesvirus pUL21 homologs use non-canonical sequences to compete with cellular adaptors for protein phosphatase 1 binding” (The Journal of Biological Chemistry, 2025).

Key:
[1] = test system: endogenous PP1γ; settings: HEK 293T cells; cited from earlier work
Description: (§1) HSV-1 pUL21 was recently identified as a novel viral PP1 regulatory protein that promotes virus replication and spread. HSV-1 pUL21 and its homologues across the alphaherpesviruses comprise two folded domains ([21], [22]) that are linked by a flexible linker domain ([23]). PP1 binding to pUL21 requires a novel SLiM, termed the Twenty-one Recruitment Of Protein Phosphatase One (TROPPO) motif, that is present in the linker region and is conserved across alphaherpesviruses.

[2] = test system: endogenous PP1α; settings: HEK 293T cells; cited from earlier work
Description: as §1

[3] = test system: endogenous PP1β; settings: HEK 293T cells; cited from earlier work
Description: as §1

[4] = test system: endogenous PP1α; experiment: GFP affinity capture / co-IP of endogenous PP1α with GFP-tagged bait; assay type: binding, human; settings: HEK 293T cells, 24 h post-transfection, GFP-Trap, immunoblot; representative of two independent experiments
Description: Bacterial expression plasmids encoding the mouse PP1γ catalytic domain (residues 7–300)-H6 and pUL21-H6, and mammalian expression vectors encoding pUL21(FV242AA)-GFP, pORF38-GFP and pORF38(FV255AA)-GFP, were described previously ([23]). We note that the mouse and human PP1γ catalytic domains share 100% amino acid identity. pORF38-NLT-H6 was generated by sub-cloning residues 1 to 263 of ORF38 into the vector pOPTnH ([52]). pUL21-RVxF-H6 was generated by inserting the mutations A237V and V239F into pUL21-H6 by QuikChange site-directed mutagenesis. Human PP1α was cloned from HeLa cell cDNA into a vector derived from pF5K (Promega) with an N-terminal Myc epitope tag via restriction-based cloning, and point mutations were introduced into Myc-PP1α by QuikChange mutagenesis. A plasmid encoding pUL21-GFP was generated by sub-cloning a codon-optimized synthetic UL21 gene (GeneArt) into pEGFP-N1 (Clontech), yielding an identical pUL21-GFP amino acid sequence as used in ([23]). pUL21-ΔL, -ΔR and -ΔLR were generated from this vector via inverse PCR, and point mutations were introduced via QuikChange mutagenesis.
Mycoplasma-free human embryonic kidney 293T (HEK 293T) cells (American Type Culture Collection #CRL-3216) were maintained in Dulbecco’s modified Eagle’s medium (DMEM) with high glucose (Merck), supplemented with 10% (v/v) heat-inactivated fetal calf serum and 2 mM L-glutamine (complete DMEM) in a humidified 5% CO2 atmosphere at 37 °C. The identity of the cell line was not independently confirmed.
Monolayers of HEK 293T cells were transfected with 7.7 μg of DNA per 9 cm dish, using 18 μg/ml 25 kDa branched polyethylenimine (Merck) or using TransIt-LT1 (Mirus) in accordance with the manufacturer’s instructions. Cells were harvested 24 h post-transfection and incubated for 30 min in ice-cold 10 mM Tris pH 7.5, 150 mM NaCl, 0.5 mM EDTA, 0.5% Igepal CA-630 (a.k.a. NP-40), 1% (v/v) EDTA-free protease inhibitor cocktail (Merck) before clarification at 21,000×g for 10 min at 4 °C. Lysate protein concentrations were measured using the bicinchoninic acid (BCA) assay (Pierce) and normalized before affinity capture using GFP-Trap resin (ChromoTek) following the manufacturer’s protocol. Samples were eluted by heating the resin to 95 °C for 5 min in 45 μl 2 × SDS-PAGE loading buffer. Proteins were separated by SDS-PAGE and transferred to 0.45 μm nitrocellulose membranes (PerkinElmer or Cytiva). Membranes were stained with Ponceau S and imaged using a G:Box XX9 (Syngene) before blocking in Tris-buffered saline with 0.1% TWEEN-20 (TBS-T) supplemented with 5% (w/v) non-fat milk powder. Immunoblotting was performed using antibodies diluted in blocking buffer as listed below, and immunoblots were imaged using an Odyssey CLx (LI-COR Biosciences). Densitometry was performed using Image Studio Lite version 5.2 (LI-COR Biosciences), and statistical tests were performed using Prism version 7 (GraphPad).
The following primary antibodies and dilutions were used for immunoblotting: rabbit anti-CERT 1:10,000 (Abcam #Ab72536), mouse anti-PP1α 1:1000 (Santa Cruz #sc-271762), mouse anti-Myc 1:4000 (Millipore #05–724), rat anti-tubulin (clone YL1/2) hybridoma supernatant 1:40 ([54]). The anti-CERT antibody was validated using a knock-out cell line. The anti-PP1α antibody has been validated by siRNA knockdown ([55]). The anti-Myc antibody was validated using control experiments lacking Myc-tagged transfected constructs ([56]). The anti-tubulin antibody has been validated by immunofluorescence microscopy, immuno-electron microscopy and radiolabeled immunosorbent assay ([54]). Secondary antibodies from LI-COR Biosciences were diluted 1:10,000 as follows: IRDye 680RD goat anti-rat (#926–68029) and goat anti-mouse (#926–68020), or IRDye 800CW goat anti-rabbit (#926–32221).

B1: pUL21-GFP (protein)
chain: MELSYATTMHYRDVVFYVTTDRNRAYFVCGGCVYSVGRPCASQPGEIAKFGLVVRGTGPDDRVVANYVRSELRQRGLQDVRPIGEDEVFLDSVCLLNPNVSSELDVINTNDVEVLDECLAEYCTSLRTSPGVLISGLRVRAQDRIIELFEHPTIVNVSSHFVYTPSPYVFALAQAHLPRLPSSLEALVSGLFDGIPAPRQPLDAHNPRTDVVITGRRAPRPIAGSGAGSGGAGAKRATVSEFVQVKHIDRVGPAGVSPAPPPNNTDSSSLVPGAQDSAPPGPTLRELWWVFYAADRALEEPRADSGLTREEVRAVRGFREQAWKLFGSAGAPRAFIGAALGLSPLQKLAVYYYIIHRERRLSPFPALVRLVGRYTQRHGLYVPRPDDPVLADAINGLFRDALAAGTTAEQLLMFDLLPPKDVPVGSDVQADSTALLRFIESQRLAVPGGVISPEHVAYLGAFLSVLYAGRGRMSAATHTARLTGVTSLVLAVGDVDRLSAFDRGAAGAASRTRAAGYLDVLLTVRLARSQHGQSV
modifications: left off: GFP (from the vector pEGFP-N1), end not stated, kept
Co-precipitation of endogenous PP1γ [1]: co-precipitates with endogenous PP1α, PP1β and PP1γ | Co-precipitation of endogenous PP1α [2]: co-precipitates with endogenous PP1α, PP1β and PP1γ | Co-precipitation of endogenous PP1β [3]: co-precipitates with endogenous PP1α, PP1β and PP1γ | Co-IP of endogenous PP1α [4]: efficiently precipitate endogenous PP1α
